Source: patent publication US20220249640A1 (Dana-Farber, published 2022)
Each block holds one binder with its values, some of them ahead of it.

Columns and labels:
human PD-1 on cells = human PD-1 on cells (human, UniProt Q15116 25-288); assay: cell-based or functional assay
[1] = molecular target: T1, mouse PD-1 on transiently transfected Expi293 cells (mouse, UniProt Q02242 25-288); assay: flow cytometry on transiently transfected Expi293 cells, anti human Fc-APC
T1 construct: whole, on cells; also called mPD-1
T1 sequence (looked up): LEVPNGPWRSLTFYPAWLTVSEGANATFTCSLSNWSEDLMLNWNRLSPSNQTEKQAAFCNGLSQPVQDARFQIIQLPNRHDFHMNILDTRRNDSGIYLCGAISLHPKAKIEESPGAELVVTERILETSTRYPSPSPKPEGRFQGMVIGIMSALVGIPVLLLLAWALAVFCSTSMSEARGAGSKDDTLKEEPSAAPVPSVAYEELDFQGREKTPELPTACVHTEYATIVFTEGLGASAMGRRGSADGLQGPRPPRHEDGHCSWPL
Procedure: 3E5 transiently transfected Expi293 cells were suspended in 100 ul MACS buffer and added to each well. 50 ul of each antibody dilution were then mixed with the cells and the plate was incubated at 4° C. for 30 min. Following incubation, the plate was washed 2× with MACS buffer and then incubated with lul/well anti human Fc-APC (Biolegend #409306). The plate was incubated for 25 min at 4° C. and then washed 3× before running the samples.

[2] = molecular target: T2, PD-1 (soluble, biotinylated, on sensors or coated on plates) (human, UniProt Q15116 25-167, limits assumed, biotinylated (avi tag, Avidity's biotinylation kit) in the Octet assays); assay: method not stated at the list; Octet curves of the mutants in FIG. 23
T2 construct: also called biotinylated PD-1; soluble PD1

[3] = molecular target: T2, PD-1 (soluble, biotinylated, on sensors …); assay: Octet (BLI)

T2 sequence (Q15116 25-167 limits assumed): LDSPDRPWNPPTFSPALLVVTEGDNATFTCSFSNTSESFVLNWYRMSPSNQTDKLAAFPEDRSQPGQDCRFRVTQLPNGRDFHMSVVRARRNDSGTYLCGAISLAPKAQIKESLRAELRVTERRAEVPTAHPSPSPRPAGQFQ
Sequence of human PD-1 on cells (Q15116 25-288): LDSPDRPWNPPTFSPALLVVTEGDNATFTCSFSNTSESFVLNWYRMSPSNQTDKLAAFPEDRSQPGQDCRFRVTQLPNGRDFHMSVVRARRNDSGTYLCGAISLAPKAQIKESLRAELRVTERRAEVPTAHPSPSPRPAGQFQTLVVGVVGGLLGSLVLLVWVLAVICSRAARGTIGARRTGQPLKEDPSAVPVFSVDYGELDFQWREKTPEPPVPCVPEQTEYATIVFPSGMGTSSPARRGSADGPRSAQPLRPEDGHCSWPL

fold induction (RLU stimulated/RLU unstimulated), Promega PD1-PDL1 bioassay (human PD-1 on cells): ~0.5 fold of the signal of pembro and nivo
B1: P4-B3 IgG1 wild type monomer (antibody, V domains shown)
VH: QVQLVQSGGGLVQPGRSLRLSCAASGFTFDDYAMHWVRQAPGKGLEWVSGISWNSGSIGYADSVKGRFTVSRDNAKNSLYLQMNSLRAEDTAVYYCASDYGDKYYYYGMDVWGKGTTVTVSS
VL: QPGLTQPPSASGTPGQRVTISCSGSSSNIGSNTVNWYQQFPGKAPKLLIFNDNQRPSGVPDRFSASKSGTSASLAISGLQSEDEADYYCAAWDGGLNGRGVFGGGTKLTVLG

binding result [1]: binds
B2: P4-B3 (format not stated) (antibody, V domains shown)
VH: QVQLVQSGGGLVQPGRSLRLSCAASGFTFDDYAMHWVRQAPGKGLEWVSGISWNSGSIGYADSVKGRFTVSRDNAKNSLYLQMNSLRAEDTAVYYCASDYGDKYYYYGMDVWGKGTTVTVSS
VL: QPGLTQPPSASGTPGQRVTISCSGSSSNIGSNTVNWYQQFPGKAPKLLIFNDNQRPSGVPDRFSASKSGTSASLAISGLQSEDEADYYCAAWDGGLNGRGVFGGGTKLTVL
notes: It was detected with anti human Fc-APC

EC50, Promega PD1-PDL1 bioassay (scFv-Fc format) (human PD-1 on cells): 1.75 fold of the EC50 of Nivo
Kd [2]: ~1 nM
B3: P4-B3 minibody (scFv-Fc) (Fc fusion)
scFv: QVQLVQSGGGLVQPGRSLRLSCAASGFTFDDYAMHWVRQAPGKGLEWVSGISWNSGSIGYADSVKGRFTVSRDNAKNSLYLQMNSLRAEDTAVYYCASDYGDKYYYYGMDVWGKGTTVTVSSGGGGSGGGGSGGGGSQPGLTQPPSASGTPGQRVTISCSGSSSNIGSNTVNWYQQFPGKAPKLLIFNDNQRPSGVPDRFSASKSGTSASLAISGLQSEDEADYYCAAWDGGLNGRGVFGGGTKLTVL
notes: scFv-Fc (minibody) format; also called P4-B3 WT; P4-B3 wild type; not shown: Fc (hinge-CH2-CH3) of the minibody vector and its junction to the scFv

koff [3]: 6.45e-05 s⁻¹
kon [3]: 68500 M⁻¹ s⁻¹
B4: P4-B3 scFv (scFv)
scFv: QVQLVQSGGGLVQPGRSLRLSCAASGFTFDDYAMHWVRQAPGKGLEWVSGISWNSGSIGYADSVKGRFTVSRDNAKNSLYLQMNSLRAEDTAVYYCASDYGDKYYYYGMDVWGKGTTVTVSSGGGGSGGGGSGGGGSQPGLTQPPSASGTPGQRVTISCSGSSSNIGSNTVNWYQQFPGKAPKLLIFNDNQRPSGVPDRFSASKSGTSASLAISGLQSEDEADYYCAAWDGGLNGRGVFGGGTKLTVL
notes: This is a single chain Fv; VH and VL are joined by a G4S linker of which only the DNA is printed
